Assay results taken from PMC4355975, “PAT1 inversely regulates the surface Amyloid Precursor Protein level in mouse primary neurons” (BMC Neuroscience, 2015).

Experiments:
[1] = target: T1, Amyloid Precursor Protein (APP) (mouse (endogenous in primary cortical …, UniProt P12023 18-770)); assay: co-IP; after cell surface biotinylation of mouse primary cortical neurons at 6 DIV (Cell surface Co-IP); APP precipitated with anti-APP Cter polyclonal antibody; blots for APP and PAT1; details: partners not purified
T1 construct: Amyloid precursor protein, endogenous in mouse primary cortical neurons; precipitated with the anti-APP Cter polyclonal antibody, detected with anti-APP-Nter A4; In the cell surface co-IP the surface pool was labelled with sulfo-NHS-biotin; source: endogenous, mouse primary cortical neurons (E16, Swiss strain), in lysate

[2] = target: T1, Amyloid Precursor Protein (APP); assay: co-IP; total extracts of mouse primary cortical neurons at 6 DIV; APP precipitated with anti-APP Cter polyclonal antibody and protein A Sepharose; IP buffer Hepes 10 mM, NaCl 150 mM, CaCl2 2 mM, 1% Triton X 100, 4°C; blots for APP and PAT1; details: partners not purified

ratio of APP to PAT1 in the immunoprecipitate (arbitrary units) [1]: 6 AU
ratio of APP to PAT1 in the immunoprecipitate (arbitrary units) [2]: 2.7 AU
B1: PAT1 (Protein interacting with APP tail 1) (natural protein, UniProt Q9DAX9 1-585, looked up)
chain: MAAVELEWIPETLYNTAISAVVDNYIRSRRDIRSLPENIQFDVYYKLYQQGRLCQLGSEFCELEVFAKVLRALDKRHLLHHCFQALMDHGVKVASVLAYSFSRRCSYIAESDAAVKEKAIQVGFVLGGFLSDAGWYSDAEKVFLSCLQLCTLHDEMLHWFRAVECCVRLLHVRNGNCKYHLGEETFKLAQTYMDKLSKHGQQANRAALYGELCALLFAKSHYDEAYKWCVEAMKEITAGLPVKVVVDVLRQASKACVVKREFKKAEQLIKHAVYLARDHFGSKHPKYSDTLLDYGFYLLNVDNICQSVAIYQAALDIRQSVFGGKNIHVATAHEDLAYSSYVHQYSSGKFDNALFHAERAIGIITHILPEDHLLLASSKRVKALILEEIAIDCHNKETEQRLLQEAHDLHLSSLQLAKKAFGEFNVQTAKHYGNLGRLYQSMRKFKEAEEMHIKAIQIKEQLLGQEDYEVALSVGHLASLYNYDMNQYENAEKLYLRSIAIGKKLFGEGYSGLEYDYRGLIKLYNSIGNYEKVFEYHNVLSNWNRLRDRQYSVTDALEDVSSSPQSTEEVVQSFLMAQNVEGPSC
notes: PAT1 / APPBP2, endogenous in mouse primary cortical neurons; detected by blot with mAb26; also called Ara67; source: endogenous, mouse primary cortical neurons (E16, Swiss strain), in lysate
